One molecule from publication PMC5867903 can be followed below.

For this assay, the target named is mouse serum proteins (serum protein binding assay) (mouse). In words: ultrafiltration of serum.

B1: 800-G-Abz4-t-BBN (peptide)
peptide: GQWAVGHLM
modifications: IRDye800 (800CW) on the N-terminus; 4-aminobenzoyl (Abz4) between the linker G and Q; C-terminal amide
On to B1, for which the percent serum protein bound is > 90%.
